Results taken from patent publication US20240301071A1 (Alector, published 2024).

Legend:
[1] = target: human SIRPA on human macrophages (primary monocyte-derived macrophages; U937 line) (human, UniProt P78324 31-504); experiment: cell-based or functional assay
[2] = target: T1, soluble human FcgR2B (human, UniProt P31994 46-217); experiment: BLI (Octet RED96), antibody captured by anti-human Fab-CH1, soluble human FcR
T1 construct: also called CD32B
T1 sequence (looked up): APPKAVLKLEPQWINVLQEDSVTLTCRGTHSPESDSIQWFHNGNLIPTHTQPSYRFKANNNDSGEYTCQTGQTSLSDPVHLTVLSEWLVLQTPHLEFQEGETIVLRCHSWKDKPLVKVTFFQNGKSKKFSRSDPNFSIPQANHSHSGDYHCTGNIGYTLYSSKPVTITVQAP
Description: (§1) FcR affinity measurements for anti-SIRPA antibody Fc variants were obtained using bio-layer interferometry (BLI) on a Pall ForteBio Octet RED96 instrument. […] Single cycle kinetics were performed with 100 nM of soluble human FcRs flowed over captured antibody to record traces (300 s association time, 300 s dissociation time). Data analysis was performed using ForteBio Data Analysis Software, version 9.0. Standard kinetic buffer (PBS, 0.1% BSA, 0.02% Tween-20, pH 7.2) was used for the assay and for preparing reagents.

[3] = target: T2, soluble human FcgR2A H131 (human, UniProt P12318 36-218); experiment: as above
T2 construct: also called CD32A-H131
T2 sequence (looked up): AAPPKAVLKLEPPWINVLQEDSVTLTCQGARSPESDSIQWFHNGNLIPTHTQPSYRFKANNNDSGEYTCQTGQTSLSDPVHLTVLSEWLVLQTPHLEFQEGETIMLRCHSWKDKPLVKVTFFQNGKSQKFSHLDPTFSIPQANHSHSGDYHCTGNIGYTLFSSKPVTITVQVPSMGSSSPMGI
Description: as §1

[4] = target: T3, soluble human FcgR2A R131 (human, UniProt P12318 36-218); experiment: as above
T3 construct: also called CD32A-R131
T3 sequence (looked up): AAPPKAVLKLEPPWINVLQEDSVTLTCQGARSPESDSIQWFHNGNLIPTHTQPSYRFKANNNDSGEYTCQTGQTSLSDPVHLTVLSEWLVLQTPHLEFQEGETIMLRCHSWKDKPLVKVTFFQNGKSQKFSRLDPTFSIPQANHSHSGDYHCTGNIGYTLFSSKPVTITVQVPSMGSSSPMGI
Description: as §1

[5] = target: T4, soluble human FcgR3A V158 (human, UniProt P08637 17-208); experiment: as above
T4 construct: also called CD16A V158
Description: as §1

[6] = target: T5, soluble human FcgR3A F158 (human, UniProt P08637 17-208); experiment: as above
T5 construct: also called CD16A F158
Description: as §1

[7] = target: T6, soluble human FcgR1 (human, UniProt P12314 16-288); experiment: BLI (Octet RED96), antibody captured by anti-human Fab-CH1, 100 nM soluble human FcR
T6 construct: also called FcγRI; CD64
Description: as §1

human SIRPA on human macrophages (primary monocyte-derived macrophages; U937 line), sequence (P78324 31-370): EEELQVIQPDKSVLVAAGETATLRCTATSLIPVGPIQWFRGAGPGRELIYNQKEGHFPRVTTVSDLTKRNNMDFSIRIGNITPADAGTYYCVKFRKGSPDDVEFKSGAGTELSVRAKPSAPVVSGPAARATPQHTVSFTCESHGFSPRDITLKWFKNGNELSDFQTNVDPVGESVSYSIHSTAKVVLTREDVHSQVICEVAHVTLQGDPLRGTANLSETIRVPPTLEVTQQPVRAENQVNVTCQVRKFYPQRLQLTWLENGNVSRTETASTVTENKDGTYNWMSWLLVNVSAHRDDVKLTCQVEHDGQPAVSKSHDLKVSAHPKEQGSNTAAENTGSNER
T4 sequence (P08637 17-208 F176V limits assumed): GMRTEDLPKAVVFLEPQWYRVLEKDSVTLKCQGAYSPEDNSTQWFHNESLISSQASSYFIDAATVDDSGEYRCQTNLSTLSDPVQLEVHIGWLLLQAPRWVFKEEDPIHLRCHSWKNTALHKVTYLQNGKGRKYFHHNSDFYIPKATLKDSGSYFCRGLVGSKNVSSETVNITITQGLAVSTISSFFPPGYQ
T5 sequence (P08637 17-208 limits assumed): as the sequence (P08637 17-208 F176V limits assumed) above, with V160F counted along it
T6 sequence (P12314 16-288 limits assumed): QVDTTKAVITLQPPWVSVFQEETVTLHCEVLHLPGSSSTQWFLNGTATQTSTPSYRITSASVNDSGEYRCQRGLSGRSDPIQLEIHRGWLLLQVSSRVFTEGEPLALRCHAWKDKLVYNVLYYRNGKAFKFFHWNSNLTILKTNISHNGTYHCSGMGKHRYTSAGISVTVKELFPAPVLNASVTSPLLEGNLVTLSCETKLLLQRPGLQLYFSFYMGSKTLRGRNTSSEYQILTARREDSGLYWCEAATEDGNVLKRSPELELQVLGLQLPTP

B1: 3F9-22 hIgG1 LALAPS (antibody)
heavy: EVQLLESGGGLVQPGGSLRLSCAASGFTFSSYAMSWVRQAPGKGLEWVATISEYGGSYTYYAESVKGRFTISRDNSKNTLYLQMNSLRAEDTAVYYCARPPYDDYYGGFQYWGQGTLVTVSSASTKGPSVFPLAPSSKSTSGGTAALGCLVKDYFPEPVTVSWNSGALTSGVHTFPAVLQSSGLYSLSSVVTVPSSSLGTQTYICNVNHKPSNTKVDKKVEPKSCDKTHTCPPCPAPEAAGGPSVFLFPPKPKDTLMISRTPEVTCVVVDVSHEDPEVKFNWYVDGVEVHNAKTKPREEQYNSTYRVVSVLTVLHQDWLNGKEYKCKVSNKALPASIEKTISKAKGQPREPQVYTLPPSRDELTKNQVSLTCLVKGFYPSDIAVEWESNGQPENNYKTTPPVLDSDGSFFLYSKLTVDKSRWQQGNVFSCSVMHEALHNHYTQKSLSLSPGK
light: DIQLTQSPSSLSASVGDRVTITCRASKSVSSGGYSYMHWYQQKPGKAPKLLIYLASNLESGVPSRFSGSGSGTDFTLTISSVQPEDFATYYCQHNRELPVTFGQGTKLEIKRTVAAPSVFIFPPSDEQLKSGTASVVCLLNNFYPREAKVQWKVDNALQSGNSQESVTEQDSKDSTYSLSSTLTLSKADYEKHKVYACEVTHQGLSSPVTKSFNRGEC
notes: also called 3F9-22 LALAPS
B1 was tested, and the “IC50 (nM), SIRPA downregulation on human monocyte-derived macrophages” value [1] was 0.0447 nM, the “Max % DR, SIRPA, human monocyte-derived macrophages” value [1] was 41.6% and the binding result [2] was “no binding (tested: 100 nM)”. B1: no binding (tested: 100 nM) [3]; no binding (tested: 100 nM) [4]; no binding (tested: 100 nM) [5]. B1: no binding (tested: 100 nM) [6]; binds [7].
